Drawing on paper PMC6798810, this text covers binding and Kd for four substances.

Numbering of substitutions follows the chain as printed. pKd: −log10 of the molar value.

As a reminder, the pKd is −log10 of the Kd, conventionally taken in molar units. A low value points to a large Kd.

What all share (experiment): EMSA
Settings in all cases: EMSA: 15 ng/uL PCR product, 0.01-0.6 uM His-tagged protein, 45 min; MHQ 30 min, then DTT 30 min; buffer, pH and temperature not given (cited to ref. 44)

The test system of data set [1] is T1, MhqR (Staphylococcus aureus COL), ORF:0a4449b0.
T1 sequence: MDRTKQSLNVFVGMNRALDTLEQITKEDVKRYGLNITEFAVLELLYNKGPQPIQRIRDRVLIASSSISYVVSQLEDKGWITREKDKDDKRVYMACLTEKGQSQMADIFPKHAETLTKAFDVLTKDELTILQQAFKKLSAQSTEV

The subject of data set [2] is T2, MhqR C95A C95A (Staphylococcus aureus COL), ORF:0a4449b0.
T2 sequence: T1 sequence with C95A

Data set [3] has as its system MhqR (Staphylococcus aureus COL).
Data set [4] concerns MhqR C95A (Staphylococcus aureus COL).

As for “ACATATCAACTCCTATCATGATTGATTATAGTATTTCCCTATTCTATTTTAACTTAAACGAAGTCAAAGGTGCATGACAGTCATGTGACGACATTGCCACATCTATGTAGTCGTTTTTATTAAGCACAGTTTGAAATGAAGATGAAAACACGTATCTTGACATTAAATCTATTCAGTTATATAATTTATCCCTAAATCGAAATAAAATAAAAAAGTTGGTGATCATATGGATCGAACG (double strand) [PmhqRED m1]”, the binding entry in data set [1] is “no binding”.
Turning to “ACATATCAACTCCTATCATGATTGATTATAGTATTTCCCTATTCTATTTTAACTTAAACGAAGTCAAAGGTGCATGACAGTCATGTGACGACATTGCCACATCTATGTAGTCGTTTTTATTAAGCACAGTTTGAAATGAAGATGAAAACACGTATCTTGACATTAAATCTATTCAGTTATATAATTTATCTCGAAATAGGAATAAAATAAAAAAGTTGGTGATCATATGGATCGAACG (double strand) [PmhqRED m2]”, the binding entry in data set [1] was “no binding”.
“ACATATCAACTCCTATCATGATTGATTATAGTATTTCCCTATTCTATTTTAACTTAAACGAAGTCAAAGGTGCATGACAGTCATGTGACGACATTGCCACATCTATGTAGTCGTTTTTATTAAGCACAGTTTGAAATGAAGATGAAAACACGTATCTTGACATTAAATCTATTCAGTTATATAATTTATCTCGAAATCGAAATAAAATAAAAAAGTTGGTGATCATATGGATCGAACG (double strand) [PmhqRED promoter probe]”: the pKd is 7.85 in data set [2] and 8.13 in data set [1].
With PmhqRED promoter probe, the negative-log Kd (pKd) in data set [3] is 8.13; in data set [4] it was 7.85.
